# Source: paper PMC10267149, “The structure of phosphatidylinositol remodeling MBOAT7 reveals its catalytic mechanism and enables inhibitor identification” (Nature Communications, 2023)
# B1: MBOAT7 (Homo sapiens) (protein)
# chain: MSPEEWTYLVVLLISIPIGFLFKKAGPGLKRWGAAAVGLGLTLFTCGPHTLHSLVTILGTWALIQAQPCSCHALALAWTFSYLLFFRALSLLGLPTPTPFTNAVQLLLTLKLVSLASEVQDLHLAQRKEMASGFSKGPTLGLLPDVPSLMETLSYSYCYVGIMTGPFFRYRTYLDWLEQPFPGAVPSLRPLLRRAWPAPLFGLLFLLSSHLFPLEAVREDAFYARPLPARLFYMIPVFFAFRMRFYVAWIAAECGCIAAGFGAYPVAAKARAGGGPTLQCPPPSSPEKAASLEYDYETIRNIDCYSTDFCVRVRDGMRYWNMTVQWWLAQYIYKSAPARSYVLRSAWTMLLSAYWHGLHPGYYLSFLTIPLCLAAEGRLESALRGRLSPGGQKAWDWVHWFLKMRAYDYMCMGFVLLSLADTLRYWASIYFCIHFLALAALGLGLALGGGSPSRRKAASQPTSLAPEKLREE
# notes: full-length (1-472), C-terminal GFP-strepII removed by TEV; expressed in HEK293 freestyle cells; digitonin then amphipol PMAL-C8; monomer, 53 kDa
# Substrate: CCCCC/C=C\C/C=C\C/C=C\C/C=C\CCCC(=O)SCCNC(=O)CCNC(=O)[C@H](O)C(C)(C)COP(=O)(O)OP(=O)(O)OC[C@H]1O[C@@H](n2cnc3c(N)ncnc32)[C@H](O)[C@@H]1OP(=O)(O)O
# Assay: fluorescence assay of CoA-SH release with CPM
# Assay type: biochemical, Homo sapiens
# Conditions: PMAL-C8 reconstituted, 100 µM lyso-PI, pH 7.5, 37 °C, 2 mg/ml BSA
protein,measurement,value
B1,Km,46 µM
